Like-named read-outs stand apart in the source and are kept apart here.

Series [1] has as its target T1, Cas1-2/3 integrase (StrepII-Cas1 + Cas2/3 fusion) (Pseudomonas aeruginosa PA14, UniProt Q02ML7;Q02ML8 1-324;1-1076).
T1 sequence 1: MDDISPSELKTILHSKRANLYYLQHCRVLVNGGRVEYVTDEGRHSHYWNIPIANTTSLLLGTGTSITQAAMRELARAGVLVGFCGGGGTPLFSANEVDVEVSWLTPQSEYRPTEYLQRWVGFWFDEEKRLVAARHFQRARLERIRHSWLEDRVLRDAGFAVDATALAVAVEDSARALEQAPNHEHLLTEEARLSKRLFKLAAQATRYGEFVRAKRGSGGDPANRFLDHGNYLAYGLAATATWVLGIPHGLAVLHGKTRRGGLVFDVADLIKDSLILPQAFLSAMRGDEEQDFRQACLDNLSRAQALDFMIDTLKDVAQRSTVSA
T1 sequence 2: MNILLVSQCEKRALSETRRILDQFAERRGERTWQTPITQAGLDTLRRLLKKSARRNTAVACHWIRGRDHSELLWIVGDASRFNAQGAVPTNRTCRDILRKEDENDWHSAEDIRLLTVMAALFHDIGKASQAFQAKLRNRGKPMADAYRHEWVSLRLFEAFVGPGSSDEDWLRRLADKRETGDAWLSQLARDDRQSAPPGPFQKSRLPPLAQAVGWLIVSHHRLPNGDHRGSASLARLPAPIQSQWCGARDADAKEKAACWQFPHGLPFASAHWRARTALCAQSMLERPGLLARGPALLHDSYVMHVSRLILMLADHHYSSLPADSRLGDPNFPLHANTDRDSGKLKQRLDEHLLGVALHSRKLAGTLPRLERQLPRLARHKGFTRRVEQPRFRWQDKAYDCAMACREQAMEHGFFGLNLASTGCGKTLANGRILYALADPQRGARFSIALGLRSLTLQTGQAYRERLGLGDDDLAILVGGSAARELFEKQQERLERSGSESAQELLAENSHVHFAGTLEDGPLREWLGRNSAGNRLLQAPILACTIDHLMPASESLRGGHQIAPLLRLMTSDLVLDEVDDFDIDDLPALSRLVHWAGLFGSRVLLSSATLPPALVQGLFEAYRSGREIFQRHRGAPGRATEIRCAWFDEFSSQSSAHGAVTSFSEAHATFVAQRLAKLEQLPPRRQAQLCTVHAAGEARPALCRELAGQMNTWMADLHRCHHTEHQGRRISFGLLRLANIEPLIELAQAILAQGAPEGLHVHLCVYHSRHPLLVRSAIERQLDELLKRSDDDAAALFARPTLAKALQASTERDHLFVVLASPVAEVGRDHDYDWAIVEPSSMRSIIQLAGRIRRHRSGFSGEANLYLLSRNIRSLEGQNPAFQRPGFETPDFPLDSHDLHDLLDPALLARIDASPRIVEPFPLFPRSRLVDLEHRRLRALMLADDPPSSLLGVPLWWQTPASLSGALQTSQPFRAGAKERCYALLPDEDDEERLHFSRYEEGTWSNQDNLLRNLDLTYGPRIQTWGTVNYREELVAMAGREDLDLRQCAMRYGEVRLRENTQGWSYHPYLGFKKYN
Nature of the series: cryo-EM.

Series [2] deals with the molecule itself. The series is described as follows: cryo-EM structure.
In series [3] the target is T1, Cas1-2/3 integrase (StrepII-Cas1 + …). The series is described as follows: cryo-EM. The source holds these as a separate data set.

B1: Figure 3 foreign DNA, PAM on one strand (34/32 nt) (dsDNA)
DNA 1: AAAAACCTGGACTACTACAACCTTCGCTTTTTGG
DNA 2: TTTTTGCGAAGGTTGTAGTAGTCCAGGAAAAA
With B1, in series [1], the binding result is listed as “binds”.

B2: Cas2/3 fusion protein from the PA14 strain of Pseudomonas aeruginosa (type I-F), untagged (enzyme, Pseudomonas aeruginosa (strain PA14))
chain: MNILLVSQCEKRALSETRRILDQFAERRGERTWQTPITQAGLDTLRRLLKKSARRNTAVACHWIRGRDHSELLWIVGDASRFNAQGAVPTNRTCRDILRKEDENDWHSAEDIRLLTVMAALFHDIGKASQAFQAKLRNRGKPMADAYRHEWVSLRLFEAFVGPGSSDEDWLRRLADKRETGDAWLSQLARDDRQSAPPGPFQKSRLPPLAQAVGWLIVSHHRLPNGDHRGSASLARLPAPIQSQWCGARDADAKEKAACWQFPHGLPFASAHWRARTALCAQSMLERPGLLARGPALLHDSYVMHVSRLILMLADHHYSSLPADSRLGDPNFPLHANTDRDSGKLKQRLDEHLLGVALHSRKLAGTLPRLERQLPRLARHKGFTRRVEQPRFRWQDKAYDCAMACREQAMEHGFFGLNLASTGCGKTLANGRILYALADPQRGARFSIALGLRSLTLQTGQAYRERLGLGDDDLAILVGGSAARELFEKQQERLERSGSESAQELLAENSHVHFAGTLEDGPLREWLGRNSAGNRLLQAPILACTIDHLMPASESLRGGHQIAPLLRLMTSDLVLDEVDDFDIDDLPALSRLVHWAGLFGSRVLLSSATLPPALVQGLFEAYRSGREIFQRHRGAPGRATEIRCAWFDEFSSQSSAHGAVTSFSEAHATFVAQRLAKLEQLPPRRQAQLCTVHAAGEARPALCRELAGQMNTWMADLHRCHHTEHQGRRISFGLLRLANIEPLIELAQAILAQGAPEGLHVHLCVYHSRHPLLVRSAIERQLDELLKRSDDDAAALFARPTLAKALQASTERDHLFVVLASPVAEVGRDHDYDWAIVEPSSMRSIIQLAGRIRRHRSGFSGEANLYLLSRNIRSLEGQNPAFQRPGFETPDFPLDSHDLHDLLDPALLARIDASPRIVEPFPLFPRSRLVDLEHRRLRALMLADDPPSSLLGVPLWWQTPASLSGALQTSQPFRAGAKERCYALLPDEDDEERLHFSRYEEGTWSNQDNLLRNLDLTYGPRIQTWGTVNYREELVAMAGREDLDLRQCAMRYGEVRLRENTQGWSYHPYLGFKKYN
On to B2, for which, in series [2], the binding result is recorded as “binds”.

B3: Figure 4 foreign DNA with PAM (34/34 nt) (dsDNA)
DNA 1: TACATGCTCTAGCAAAACGACTTGCACAACGAGG
DNA 2: CCATTAAGTGCAAGTCGTTTTGCTAGAGCTACAT
Consider B3, for which, in series [3], the binding result was “binds”.

B4: Cas1 from the PA14 strain of Pseudomonas aeruginosa (type I-F), StrepII-tagged (enzyme, Pseudomonas aeruginosa (strain PA14))
chain: MDDISPSELKTILHSKRANLYYLQHCRVLVNGGRVEYVTDEGRHSHYWNIPIANTTSLLLGTGTSITQAAMRELARAGVLVGFCGGGGTPLFSANEVDVEVSWLTPQSEYRPTEYLQRWVGFWFDEEKRLVAARHFQRARLERIRHSWLEDRVLRDAGFAVDATALAVAVEDSARALEQAPNHEHLLTEEARLSKRLFKLAAQATRYGEFVRAKRGSGGDPANRFLDHGNYLAYGLAATATWVLGIPHGLAVLHGKTRRGGLVFDVADLIKDSLILPQAFLSAMRGDEEQDFRQACLDNLSRAQALDFMIDTLKDVAQRSTVSA
As for B4, in series [2], the binding result is given as “binds”.

B5: Figures 4 and 5 foreign DNA without PAM (32/32 nt) (dsDNA)
DNA 1: TACATGCTCTAGCAAAACGACTTGCACAACGA
DNA 2: ATTAAGTGCAAGTCGTTTTGCTAGAGCTACAT
For the molecule B5, in series [3], the binding result is given as “binds”.

The record behind these values is paper PMC12661925 (Structure (London, England : 1993), 2025).
